Reference: US20020062500A1, “Hypersensitive response eliciting domains and use thereof” (priority 2000, published 2002)
Ends that are not written are not given here. Peptide text beside a SMILES is read from it.

Tests used:
[1] = Solubility of expressed or synthesized polypeptides; assay type: physicochemical
Experimental: For proteins expressed in E. coli that were difficult to dissolve in water, total cells were resuspended and sonicated in 8 M urea buffer (0. IM Na-phosphate, 10 mM Tris buffer, pH8.0). The total cell lysate was centrifuged, and supernatants were collected. Ni-agarose was added into the supernatants and mixed gently at room temperature for 30 min. The Ni-agarose resin was washed with buffer (8 M urea, 0.1 M Na-phosphate, 10 mM Tris buffer, pH6.3). The proteins were eluted with elution buffer (8 M urea, 0.1 M EDTA, 0.1 M Na-phosphate, 10 mM Tris buffer, pH 6.3) and dialyzed against buffer (pH 8.5, 10 mM Tris) with stepwise decreased urea. If the proteins still were insoluble in buffer, the solution pH was adjusted to 9 to 11 and sonicated at room temperature for 1 to 5 min.
Chemically synthesized polypeptides were dissolved in 10 mM Tris, pH 6.5 to 11 buffers depending on their solubility.

[2] = tested on: tobacco leaves (cv. Xanth); settings: in vivo
[3] = description of known elicitors; cited from earlier work
[4] = cited from earlier work; for heat stable (description): description of known elicitors
[5] = description of known elicitors; cited from earlier work; remark: listed apart in the source
[6] = tested on: TMV; experiment: Percentage of TMV reduction on tobacco leaves; assay type: in vivo
[7] = tested on: tomato; experiment: Plant growth enhancement with tomato; assay type: in vivo; settings: 10 μg/ml
[8] = tested on: tobacco; settings: in vivo; cited from earlier work

CSCC[C@H](NC(=O)[C@H](CCSC)NC(=O)[C@H](CO)NC(=O)[C@H](CCSC)NC(=O)[C@H](CCSC)NC(=O)[C@H](CCSC)NC(=O)[C@H](CCSC)NC(=O)[C@H](CCSC)NC(=O)CNC(=O)[C@@H](NC(=O)[C@H](CC(C)C)NC(=O)[C@H](CC(C)C)NC(=O)CNC(=O)[C@H](C)NC(=O)[C@H](CC(C)C)NC(=O)[C@H](CCC(N)=O)NC(=O)[C@H](CC(N)=O)NC(=O)[C@@H](NC(=O)[C@@H](NC(=O)[C@H](CC(=O)O)NC(=O)[C@H](CC(N)=O)NC(=O)[C@H](CCC(N)=O)NC(=O)[C@H](CC(N)=O)NC(=O)CNC(=O)CNC(=O)CNC(=O)[C@H](CC(C)C)NC(=O)CN)[C@@H](C)O)C(C)C)[C@@H](C)O)C(=O)O [HrpNEa4370] (H-GLGGGNQNDTVNQLAGLLTGMMMMMSMM-OH; N-terminus and C-terminus assumed)
Solubility (Source column: Partial soluble) ([1]; Table 4, synthesized peptide, cell wraps over two lines 'Partial' 'soluble'): Partial

(NC): Superharpin building block HrpNEa140-180 with his-tag leader (QNDDSTSGTDSTSDSSDPMQQLLKMFSEIMQSLFGDGQDGT; also: His-tag leader; UniProt Q01099 140-180, looked up, fragment)
Soluble ([1]; Table 7, building blocks with his-tag leader): Yes

HrpNEa137180: E. coli expressed peptide, amino acids 137-180 of HrpNEa, His-tag fusion (STSQNDDSTSGTDSTSDSSDPMQQLLKMFSEIMQSLFGDGQDGT; also: His-tag fusion; UniProt Q01099 137-180, looked up, fragment)
HR activity in tobacco [2]: elicit HR activity | HR* (eliciting concentration) [2]: <5 µg/mL

HrpNEa140176: Synthesized peptide, amino acids 140-176 of HrpNEa, acidic plus helix units (QNDDSTSGTDSTSDSSDPMQQLLKMFSEIMQSLFGDG; UniProt Q01099 140-176, looked up, fragment)
HR activity (eliciting concentration) [2]: + < 5 μg/ml | HR activity in tobacco [2]: full activity of HR | HR* (eliciting concentration) [2]: <5 µg/mL

SEQ. ID. No. 8: Protein encoded by the dspE gene of Erwinia amylovora, about 198 kDa
pI (description) [3]: 8.98

hypersensitive response elicitor polypeptide or protein from Xanthomonas campestris pv. pelargonii: 20 kDa elicitor that includes the amino acid sequence of SEQ. ID. No. 18 (SSQQSPSAGSEQQLDQLLAM; Xanthomonas campestris pv. pelargonii)
heat stable (description) [4]: heat stable | protease sensitive [5]: protease sensitive

B1: HrpNEch: Harpin protein from E. chrysanthemi, subfamily N (protein, listed as Erwinia chrysanthemi)
chain: MQITIKAHIGGDLGVSGLGAQGLKGLNSAASSLGSSVDKLSSTIDKLTSALTSMMFGGALAQGLGASSKGLGMSNQLGQSFGNGAQGASNLLSVPKSGGDALSKMFDKALDDLLGHDTVTKLTNQSNQLANSMLNASQMTQGNMNAFGSGVNNALSSILGNGLGQSMSGFSQPSLGAGGLQGLSGAGAFNQLGNAIGMGVGQNAALSALSNVSTHVDGNNRHFVDKEDRGMAKEIGQFMDQYPEIFGKPEYQKDGWSSPKTDDKSWAKALSKPDDDGMTGASMDKFRQAMGMIKSAVAGDTGNTNLNLRGAGGASLGIDAAVVGDKIANMSLGKLANA
heat stable (description) [4]: heat stable

B2: SEQ. ID. No. 10: Protein encoded by the dspF gene, about 16 kDa (protein, listed as Erwinia amylovora)
chain: MTSSQQRVERFLQYFSAGCKTPIHLKDGVCALYNEQDEEAAVLEVPQHSDSLLLHCRIIEADPQTSITLYSMLLQLNFEMAAMRGCWLALDELHNVRLCFQQSLEHLDEASFSDIVSGFIEHAAEVREYIAQLDESSAA
pI (description) [3]: 4.45

B3: HrpNEa: Harpin hypersensitive response elicitor protein from E. amylovora, 403 amino acids (protein, listed as Erwinia amylovora)
chain: MSLNTSGLGASTMQISIGGAGGNNGLLGTSRQNAGLGGNSALGLGGGNQNDTVNQLAGLLTGMMMMMSMMGGGGLMGGGLGGGLGNGLGGSGGLGEGLSNALNDMLGGSLNTLGSKGGNNTTSTTNSPLDQALGINSTSQNDDSTSGTDSTSDSSDPMQQLLKMFSEIMQSLFGDGQDGTQGSSSGGKQPTEGEQNAYKKGVTDALSGLMGNGLSQLLGNGGLGGGQGGNAGTGLDGSSLGGKGLQNLSGPVDYQQLGNAVGTGIGMKAGIQALNDIGTHRHSSTRSFVNKGDRAMAKEIGQFMDQYPEVFGKPQYQKGPGQEVKTDDKSWAKALSKPDDDGMTPASMEQFNKAKGMIKRPMAGDTGNGNLQARGAGGSSLGIDAMMAGDAINNMALGKLGAA
Elicit HR [2]: 1—3 μg/ml | pI (description) [3]: approximately 4.3 | % TMV reduction on tobacco ([6]; 1 μg/ml): 10% | % TMV reduction on tobacco ([6]; 10 μg/ml): 55% | % Plant Growth Enhancement [7]: 11.68% | heat stable at 100° C. ([4]; 100° C.): at least 10 minutes | Soluble ([1]; Table 8): Yes

B4: amino acids 137 to 204 of HrpNEa: HR active fragment of HrpNEa isolated after digestion with protease (protein, UniProt Q01099 137-204, looked up, fragment)
chain: STSQNDDSTSGTDSTSDSSDPMQQLLKMFSEIMQSLFGDGQDGTQGSSSGGKQPTEGEQNAYKKGVTD
HR elicitation (literature) [8]: hypersensitive response active

B5: 98 residue of N-terminal HrpNEa fragment: Smallest bacterially produced HrpNEa peptide with HR-eliciting activity (Laby 1997) (protein, UniProt Q01099 1-98, looked up, fragment)
chain: MSLNTSGLGASTMQISIGGAGGNNGLLGTSRQNAGLGGNSALGLGGGNQNDTVNQLAGLLTGMMMMMSMMGGGGLMGGGLGGGLGNGLGGSGGLGEGL
HR elicitation (literature) [8]: displayed HR-eliciting activity

B6: HrpWEa: Harpin protein from E. amylovora, subfamily W, 447 amino acids (protein, listed as Erwinia amylovora)
chain: MSILTLNNNTSSSPGLFQSGGDNGLGGHNANSALGQQPIDRQTIEQMAQLLAELLKSLLSPQSGNAATGAGGNDQTTGVGNAGGLNGRKGTAGTTPQSDSQNMLSEMGNNGLDQAITPDGQGGGQIGDNPLLKAMLKLIARMMDGQSDQFGQPGTGNNSASSGTSSSGGSPFNDLSGGKAPSGNSPSGNYSPVSTFSPPSTPTSPTSPLDFPSSPTKAAGGSTPVTDHPDPVGSAGIGAGNSVAFTSAGANQTVLHDTITVKAGQVFDGKGQTFTAGSELGDGGQSENQKPLFILEDGASLKNVTMGDDGADGIHLYGDAKIDNLHVTNVGEDAITVKPNSAGKKSHVEITNSSFEHASDKILQLNADTNLSVDNVKAKDFGTFVRTNGGQQGNWDLNLSHISAEDGKFSFVKSDSEGLNVNTSDISLGDVENHYKVPMSANLKVAE
heat stable (description) [4]: heat stable | protease sensitive [5]: protease sensitive
